Tests used:
HCT15 tumor xenograft = assay: Established HCT15 tumor xenograft model; assay type: in vivo, mice; settings: antibody 500 ug twice weekly for four weeks; gemcitabine 120 mg/kg q3d ×2
Description: For each experimental group, data is plotted until the first animal presents with a tumor greater than 1000 mm^3.
LUCA31 was particularly active in blocking the proliferation of the colon carcinoma cell line HCT15. […] In this study, groups of 15 mice were treated twice weekly with 500 ug of antibody for four weeks. Gemcitabine was dosed on a q3d ×2 schedule at 120 mg/kg, which is near the MTD. Treatment was initiated when tumor volumes averaged 70 mm^3. In FIG. 16A, the median tumor volumes are shown and in FIG. 16B, the mean tumor volumes with error bars are presented. In this experiment, the LUCA31 antibody produced a tumor growth delay of greater than 14 days, relative to the saline control. Gemcitabine produced a 20-day tumor growth delay and the combination of LUCA31 and gemcitabine produced a tumor growth delay of 18 days relative to gemcitabine alone.

[1] = biological target: human transferrin receptor, full length, on cells (human) (UniProt P02786); assay: cell-based or functional assay
Chain of UniProt P02786 (P02786 whole entry): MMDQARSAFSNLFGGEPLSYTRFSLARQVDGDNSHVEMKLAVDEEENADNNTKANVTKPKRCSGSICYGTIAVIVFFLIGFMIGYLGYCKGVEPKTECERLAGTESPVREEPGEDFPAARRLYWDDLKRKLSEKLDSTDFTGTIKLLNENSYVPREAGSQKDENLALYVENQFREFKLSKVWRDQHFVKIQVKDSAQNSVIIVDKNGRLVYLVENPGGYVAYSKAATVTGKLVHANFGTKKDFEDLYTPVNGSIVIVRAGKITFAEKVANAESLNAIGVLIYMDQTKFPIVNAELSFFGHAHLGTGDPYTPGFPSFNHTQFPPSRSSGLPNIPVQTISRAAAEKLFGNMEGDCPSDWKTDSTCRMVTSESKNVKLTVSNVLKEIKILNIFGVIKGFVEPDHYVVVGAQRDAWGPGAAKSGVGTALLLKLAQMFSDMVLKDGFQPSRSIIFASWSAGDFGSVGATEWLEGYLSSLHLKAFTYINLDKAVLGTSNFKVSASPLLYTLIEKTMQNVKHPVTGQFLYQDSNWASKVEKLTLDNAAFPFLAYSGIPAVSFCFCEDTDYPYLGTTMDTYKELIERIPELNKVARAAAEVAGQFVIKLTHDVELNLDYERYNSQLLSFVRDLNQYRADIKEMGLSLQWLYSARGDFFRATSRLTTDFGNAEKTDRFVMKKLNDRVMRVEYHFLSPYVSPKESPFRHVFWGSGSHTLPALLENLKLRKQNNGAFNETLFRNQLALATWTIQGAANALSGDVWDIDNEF

Molecule: Nc1ccn([C@@H]2O[C@H](CO)[C@@H](O)C2(F)F)c(=O)n1 [Gemcitabine, gemcitabine]
- tumor growth delay relative to the saline control (HCT15 tumor xenograft): 20 days

Molecule: LUCA31 monoclonal antibody (mouse anti-human transferrin receptor antibody produced by hybridoma CA130.3.13C9.1A7, ATCC PTA-6055)
- Maximum inhibition (% inhibition) of cell proliferation, Calu6 cells [1]: 25%
- Maximum inhibition (% inhibition) of cell proliferation, Colo205 cells [1]: 25%
- Maximum inhibition (% inhibition) of cell proliferation, LS174T cells [1]: 35%
- Maximum inhibition (% inhibition) of cell proliferation, SW48 cells [1]: 35%
- growth inhibition (MTT), 786-O cells, LUCA31 at 20 ug/ml [1]: 54%
- growth inhibition (MTT), Colo205 cells, LUCA31 at 20 ug/ml [1]: 37%
- growth inhibition (MTT), MDA-MB-175VII cells, LUCA31 at 20 ug/ml [1]: 35%
- growth inhibition (MTT), SKMES-1 cells, LUCA31 at 20 ug/ml [1]: 45%
- maximum inhibition of cell proliferation (tritiated thymidine incorporation), Calu-6 cells [1]: 45%

Molecule: transferrin receptor antibody 42/6
- Maximum inhibition (% inhibition) of cell proliferation, Calu6 cells [1]: 0%
- Maximum inhibition (% inhibition) of cell proliferation, Colo205 cells [1]: 25%
- Maximum inhibition (% inhibition) of cell proliferation, SW48 cells [1]: 0%

— patent US7572895B2, “Transferrin receptor antibodies” (Raven Biotechnologies, Inc., priority 2004, dated 2009)
